The values below are quoted from earlier work in PMC11743636.

One series addresses sIL-6R (Homo sapiens) (UniProt P08887).
Another series concerns the target sgp130 (Homo sapiens) (UniProt P40189).

Chain of sgp130 (Homo sapiens) (P40189 23-619): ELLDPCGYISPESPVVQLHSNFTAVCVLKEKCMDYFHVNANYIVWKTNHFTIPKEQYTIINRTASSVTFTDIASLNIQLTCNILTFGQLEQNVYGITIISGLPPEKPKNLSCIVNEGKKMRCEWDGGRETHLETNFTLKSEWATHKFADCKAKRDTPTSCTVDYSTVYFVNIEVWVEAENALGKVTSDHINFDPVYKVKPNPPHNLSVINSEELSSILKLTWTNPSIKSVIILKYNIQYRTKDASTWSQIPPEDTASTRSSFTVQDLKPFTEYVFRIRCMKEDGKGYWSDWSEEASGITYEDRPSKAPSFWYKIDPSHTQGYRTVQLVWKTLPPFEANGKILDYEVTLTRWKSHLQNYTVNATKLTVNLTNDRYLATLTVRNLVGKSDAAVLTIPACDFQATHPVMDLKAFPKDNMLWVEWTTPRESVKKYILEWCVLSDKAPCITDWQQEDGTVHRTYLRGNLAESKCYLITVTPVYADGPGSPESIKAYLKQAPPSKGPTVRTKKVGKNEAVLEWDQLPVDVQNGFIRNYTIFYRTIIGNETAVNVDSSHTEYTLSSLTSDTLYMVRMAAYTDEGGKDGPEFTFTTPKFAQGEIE
Chain of sIL-6R (Homo sapiens) (P08887 20-355): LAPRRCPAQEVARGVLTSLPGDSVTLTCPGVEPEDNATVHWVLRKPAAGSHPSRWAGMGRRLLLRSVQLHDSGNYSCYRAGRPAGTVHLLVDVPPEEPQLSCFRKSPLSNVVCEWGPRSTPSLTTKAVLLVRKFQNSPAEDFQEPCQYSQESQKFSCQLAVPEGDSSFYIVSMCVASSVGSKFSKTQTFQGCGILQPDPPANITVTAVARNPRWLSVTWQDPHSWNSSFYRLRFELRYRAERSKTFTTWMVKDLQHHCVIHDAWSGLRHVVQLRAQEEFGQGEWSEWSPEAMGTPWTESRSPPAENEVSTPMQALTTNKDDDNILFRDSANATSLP

The term Kd denotes the free concentration of one partner at which half of the binding sites on the other are occupied at equilibrium, for simple one-to-one binding. On to IL-6 (from UniProt P05231), for which, in the series with sIL-6R (Homo sapiens), the Kd is 500 pM.

For the substance “IL-6/sIL-6R complex (from UniProt P05231)”, the Kd with sgp130 (Homo sapiens) was 50 pM.
